Results reported in patent publication US20240116985A1 (published 2024).
Starred links: 1 amine or outer side, 2 acyl side, 3 side chain; linkers in the order of their positions; H or OH if unused. Positions of bridges follow the written chain, without caps; N, C: chain ends. Non-standard residues stand in square brackets, D forms with d. Primed or numbered codes have the meaning given here. PyrS2″ = (S)-3-amino-1-((pent-4-en-1-yloxy)carbonyl)pyrrolidine-3-carboxylic acid (stapling residue), C=CCCCOC(=O)N1CC[C@@](N[*:1])(C(=O)[*:2])C1; B5(17) = 2,2-bis(4-pentenyl)glycine = 2-amino-2-(pent-4-en-1-yl)hept-6-enoic acid, stitching residue, C=CCCCC(CCCC=C)(N[*:1])C(=O)[*:2]; B5(4) = 2,2-bis(4-pentenyl)glycine = 2-amino-2-(pent-4-en-1-yl)hept-6-enoic acid (stitching residue), C=CCCCC(CCCC=C)(N[*:1])C(=O)[*:2]; TfeGA = (S)-2-amino-3-((carboxymethyl)(2,2,2-trifluoroethyl)amino)propanoic acid, O=C([C@H](CN(CC(=O)[*:3])CC(F)(F)F)N[*:1])[*:2]; SdN = (S)-4-(((allyloxy)carbonyl)(methyl)amino)-2-amino-2-methylbutanoic acid, C=CCOC(=O)N(C)CC[C@](C)(N[*:1])C(=O)[*:2]; B5(3) = 2,2-bis(4-pentenyl)glycine (stitching residue), C=CCCCC(CCCC=C)(N[*:1])C(=O)[*:2]; Phe(2-Cl) = N[C@@H](Cc1ccccc1Cl)C(=O)O; Bta = N[C@@H](Cc1csc2ccccc12)C(=O)O; αAllylPro = C=CC[C@@]1(C(=O)O)CCCN1; tBuAla = CC(C)(C)C[C@H](N)C(=O)O; S8 = C=CCCCCCC[C@](C)(N)C(=O)O; Leu(ol) = CC(C)C[C@H](N)CO; hSer = N[C@@H](CCO)C(=O)O

How the values were obtained:
B-cat-Halo = target: T1, B-cat-Halo (UniProt P35222 1-781); assay: cell-based or functional assay
T1 sequence (looked up): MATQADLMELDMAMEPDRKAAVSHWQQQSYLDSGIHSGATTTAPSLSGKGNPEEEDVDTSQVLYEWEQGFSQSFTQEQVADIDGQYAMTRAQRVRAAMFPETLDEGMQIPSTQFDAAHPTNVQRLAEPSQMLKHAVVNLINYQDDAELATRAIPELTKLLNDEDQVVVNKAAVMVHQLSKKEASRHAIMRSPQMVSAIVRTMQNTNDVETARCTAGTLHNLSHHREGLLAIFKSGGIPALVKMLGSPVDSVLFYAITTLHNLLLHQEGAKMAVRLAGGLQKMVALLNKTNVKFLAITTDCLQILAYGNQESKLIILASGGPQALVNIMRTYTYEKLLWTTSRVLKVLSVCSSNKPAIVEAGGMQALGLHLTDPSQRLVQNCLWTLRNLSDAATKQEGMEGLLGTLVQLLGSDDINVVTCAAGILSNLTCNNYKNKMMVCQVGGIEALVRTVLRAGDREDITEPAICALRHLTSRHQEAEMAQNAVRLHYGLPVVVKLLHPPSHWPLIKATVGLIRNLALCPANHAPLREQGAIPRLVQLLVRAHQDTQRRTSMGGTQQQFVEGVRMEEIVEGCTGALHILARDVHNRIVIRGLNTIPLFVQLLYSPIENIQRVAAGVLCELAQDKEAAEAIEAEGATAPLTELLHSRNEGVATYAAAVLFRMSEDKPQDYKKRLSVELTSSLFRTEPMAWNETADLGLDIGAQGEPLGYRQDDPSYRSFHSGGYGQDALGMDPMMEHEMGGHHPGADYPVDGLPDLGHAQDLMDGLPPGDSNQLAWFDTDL

[1] = target: T2, beta-catenin in DLD1 TCF/LEF luciferase reporter cells (UniProt P35222 1-781); assay: cell-based or functional assay
T2 sequence (looked up): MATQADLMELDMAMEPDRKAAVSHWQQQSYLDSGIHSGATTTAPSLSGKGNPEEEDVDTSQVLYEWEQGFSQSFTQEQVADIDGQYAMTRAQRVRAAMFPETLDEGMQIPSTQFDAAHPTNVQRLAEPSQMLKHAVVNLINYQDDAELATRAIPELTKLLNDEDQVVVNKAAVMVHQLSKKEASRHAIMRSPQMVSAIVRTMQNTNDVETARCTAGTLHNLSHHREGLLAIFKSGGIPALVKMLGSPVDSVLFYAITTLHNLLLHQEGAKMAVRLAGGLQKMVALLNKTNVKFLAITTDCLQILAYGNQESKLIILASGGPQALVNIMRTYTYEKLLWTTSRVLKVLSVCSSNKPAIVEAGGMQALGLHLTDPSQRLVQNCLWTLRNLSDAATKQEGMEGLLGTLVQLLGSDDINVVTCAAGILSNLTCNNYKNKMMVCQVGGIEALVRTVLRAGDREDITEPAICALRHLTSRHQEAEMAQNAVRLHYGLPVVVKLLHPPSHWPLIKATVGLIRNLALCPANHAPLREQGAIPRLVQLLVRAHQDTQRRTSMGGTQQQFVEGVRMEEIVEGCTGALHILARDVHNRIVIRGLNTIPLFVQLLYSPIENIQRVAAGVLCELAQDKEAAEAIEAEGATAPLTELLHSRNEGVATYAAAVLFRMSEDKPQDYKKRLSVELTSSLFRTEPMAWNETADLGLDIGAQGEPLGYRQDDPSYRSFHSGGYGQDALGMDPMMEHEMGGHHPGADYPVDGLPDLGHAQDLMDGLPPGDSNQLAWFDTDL

[2] = target: T3, full-length beta-Catenin (Uniprot ID P35222) (Homo sapiens (Human), UniProt P35222 1-781); assay: fluorescence polarization competition; full-length beta-catenin, 5FAM-TCF4(10-53) probe as competitor
T3 construct: The assay protocol says 'full-length'; also called bCat; B-Catenin
T3 sequence: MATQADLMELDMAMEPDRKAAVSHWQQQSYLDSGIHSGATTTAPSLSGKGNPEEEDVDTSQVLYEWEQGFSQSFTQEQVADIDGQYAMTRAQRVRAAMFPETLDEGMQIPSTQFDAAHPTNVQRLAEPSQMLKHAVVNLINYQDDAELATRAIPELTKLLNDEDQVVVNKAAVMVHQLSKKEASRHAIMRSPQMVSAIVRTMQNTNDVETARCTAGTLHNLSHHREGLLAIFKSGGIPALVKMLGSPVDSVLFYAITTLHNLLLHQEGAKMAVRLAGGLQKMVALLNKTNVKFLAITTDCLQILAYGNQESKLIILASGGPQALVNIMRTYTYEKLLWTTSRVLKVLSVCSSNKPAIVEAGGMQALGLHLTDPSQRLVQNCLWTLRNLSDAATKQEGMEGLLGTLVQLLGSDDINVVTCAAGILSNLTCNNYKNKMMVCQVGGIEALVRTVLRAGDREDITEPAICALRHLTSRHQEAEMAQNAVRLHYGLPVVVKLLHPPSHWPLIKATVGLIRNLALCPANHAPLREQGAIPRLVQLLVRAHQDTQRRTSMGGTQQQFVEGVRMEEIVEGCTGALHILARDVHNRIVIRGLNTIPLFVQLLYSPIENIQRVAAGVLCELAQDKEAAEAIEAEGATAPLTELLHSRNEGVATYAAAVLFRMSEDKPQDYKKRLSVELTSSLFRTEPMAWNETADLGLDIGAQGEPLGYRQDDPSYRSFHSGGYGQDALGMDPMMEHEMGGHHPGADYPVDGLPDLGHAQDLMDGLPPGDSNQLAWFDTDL
Protocol: The plate was incubated protected from light for 60 minutes at 20° C. prior to read. Reads were performed on a CLARIOstar plate reader (BMG Labtech) in duplicate, and data were fitted to a 1:1 binding model with hill slope using an in-house script. All provided concentrations are final concentrations.

[3] = target: T4, B-cat-Halo (beta-catenin HaloTag NanoBRET construct expressed in HEK293 cells) (UniProt P35222 1-781); assay: cell-based or functional assay
T4 sequence (looked up): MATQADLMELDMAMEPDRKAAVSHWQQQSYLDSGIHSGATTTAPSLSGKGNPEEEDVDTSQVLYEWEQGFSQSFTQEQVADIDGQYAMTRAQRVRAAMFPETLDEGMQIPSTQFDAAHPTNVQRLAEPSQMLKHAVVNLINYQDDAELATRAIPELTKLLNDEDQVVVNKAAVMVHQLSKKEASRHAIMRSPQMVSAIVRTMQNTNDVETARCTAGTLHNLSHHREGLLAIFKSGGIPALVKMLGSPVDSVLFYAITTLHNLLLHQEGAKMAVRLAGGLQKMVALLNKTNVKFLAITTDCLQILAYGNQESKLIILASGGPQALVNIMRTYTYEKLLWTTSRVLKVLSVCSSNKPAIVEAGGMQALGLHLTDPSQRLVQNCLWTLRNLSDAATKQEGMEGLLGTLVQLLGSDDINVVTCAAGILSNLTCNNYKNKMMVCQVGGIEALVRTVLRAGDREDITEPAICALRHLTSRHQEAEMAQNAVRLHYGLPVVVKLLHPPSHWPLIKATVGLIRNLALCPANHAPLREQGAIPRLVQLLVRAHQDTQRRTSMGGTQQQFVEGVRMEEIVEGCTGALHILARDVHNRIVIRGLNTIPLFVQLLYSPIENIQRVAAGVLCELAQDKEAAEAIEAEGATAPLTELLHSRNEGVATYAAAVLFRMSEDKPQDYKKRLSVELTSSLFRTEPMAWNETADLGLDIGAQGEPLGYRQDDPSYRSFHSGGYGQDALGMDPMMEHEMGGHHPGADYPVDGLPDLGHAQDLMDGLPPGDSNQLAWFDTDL

[4] = target: T5, beta-catenin in DLD1 TCF/LEF luciferase reporter cells (UniProt P35222 1-781); assay: cell-based or functional assay; remark: listed apart in the source
T5 sequence (looked up): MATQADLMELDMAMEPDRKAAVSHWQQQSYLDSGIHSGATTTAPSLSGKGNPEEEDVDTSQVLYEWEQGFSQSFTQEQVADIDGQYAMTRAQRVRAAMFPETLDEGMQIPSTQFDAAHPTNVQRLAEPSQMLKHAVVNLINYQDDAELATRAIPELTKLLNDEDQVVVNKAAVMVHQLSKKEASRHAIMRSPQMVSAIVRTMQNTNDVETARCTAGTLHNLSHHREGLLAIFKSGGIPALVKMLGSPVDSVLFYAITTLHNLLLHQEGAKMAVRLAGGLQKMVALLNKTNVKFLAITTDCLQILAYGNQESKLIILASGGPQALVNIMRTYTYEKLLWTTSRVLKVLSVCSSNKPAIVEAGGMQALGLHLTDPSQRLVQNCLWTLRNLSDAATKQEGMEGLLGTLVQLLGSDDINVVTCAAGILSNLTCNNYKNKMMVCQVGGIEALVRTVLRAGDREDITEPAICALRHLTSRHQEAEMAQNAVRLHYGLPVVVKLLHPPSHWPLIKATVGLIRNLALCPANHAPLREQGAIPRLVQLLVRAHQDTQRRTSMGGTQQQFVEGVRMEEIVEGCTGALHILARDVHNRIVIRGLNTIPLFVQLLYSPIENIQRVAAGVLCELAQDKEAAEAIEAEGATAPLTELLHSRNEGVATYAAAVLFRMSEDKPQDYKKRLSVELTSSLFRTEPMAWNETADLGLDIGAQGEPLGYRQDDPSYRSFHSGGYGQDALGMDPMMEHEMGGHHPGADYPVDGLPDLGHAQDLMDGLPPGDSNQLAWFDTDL

Binder: Ac-[αAllylPro]D[tBuAla][B5(3)]D[TfeGA]AAF[hSer][S8][Phe(2-Cl)][Bta][hSer]-NH2 (staple 1-4, 4-11) [I-1000]
- NanoBRET Abs IC50 (B-cat-Halo): 23.9 µM
- DLD1 4% Abs IC50 [1]: 1.9 µM

Binder: Ac-[αAllylPro]DA[B5(17)]DDAAFV[SdN]FWQ-NH2 (staple 1-4, 4-11, Tested as stapled peptide composition) [I-55: Ac-PL3-Asp-Ala-B5-Asp-Asp-Ala-Ala-Phe-Val-SdN-Phe-Trp-Gln-NH2 (stapled peptide)]
- IC50 [2]: 5 µM

Binder: Ac-[αAllylPro]D[tBuAla][B5(4)]DDAAFN[PyrS2″][Phe(2-Cl)][Bta][Leu(ol)] (staple 1-4, 4-11) [I-1080]
- NanoBRET Abs IC50 [3]: > 20 µM
- DLD1 reporter assay Abs IC50 [4]: 17.2 µM
